Source: the supplement of paper PMC12636428

These sequences were tested on Saccharomyces cerevisiae (assay: transcriptional activation domain activity (GFP:mCherry ratio, weighted mean of sorted bins, harmonized to initial dataset scale) (arbitrary fluorescence ratio units); higher = stronger transcriptional activation). Conditions: beta-estradiol 1 µM; induction time 4 h.
Summary of the method: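 Yeast diploids with a GFP reporter received barcoded protein tiles, fused to an estradiol-inducible synthetic transcription factor, at the URA3 locus. Cultures were diluted 1:5 into SC holding 1 uM beta-estradiol, incubated 4 hours at 30 °C, sorted into 8 bins on GFP:mCherry ratio, and sequenced for barcodes, with tiles under 50 reads discarded. Activation activity values come from the read-weighted mean of bin median fluorescence, averaged across barcodes and linearly placed on the initial dataset scale.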

Sequence	transcriptional activation domain activity
CRLYRLGFFVFLLVLSGLSFLSFYQVYRLFYFLLLFLFFSLFVFFSFCLILYF	57400
LQLAFYFGFIMVFVCSYMKRNTLVLLLFLLNNLCMVFRFYASDLLYQYWLIPV	61800
AYSITLPICSSPILLLFIQSLLFLLPLFSITLSPSFSFILYLLHLFSLLLLCL	30200
MSLKEDDFGKDNSRNIESYTGRIFDVYIQKDSYSQSALDDMFPEAVVSTAACV	32700
EDSEEKPRKKTPRKAAASKPKSKGKKKADSDSGEESDAEPRAKKSATKGKGKK	25500
EDDDGKGNKQKTSEKRKLQNRQAQRNFRERKEKVSCPSSPAAPRASQGTRGSC	23900
FRRYKGPGREDEETDDEDEVRPRRPMEMKKRVLHLLTTEITINTTLYGDFTAF	27700
RGKSSSSSIGGAQEGAVRADETSHHHHHHHHQQQQQQQQQKQQQRHVQEQADI	30600
MYLFFFFFLDWFFFVVIITIICILWIWAWDFWACLLGIGIGFACLFYSGWVLF	47800
LGILLLLFDWRVLFNAAQMSCALHESCIALSVMKARNQEWKWWCLGSTYYVYE	44100
RKNNKREVKVEAREPHHKGRKNNKREVEAVEEVEARDPHHKGRKNNNREVEVE	28300
MRTLLMCHANRGIGFFWSGVFLWKVNILAGNGGYSSMCAYVNWLRLTWFSFVA	40900
RSESGSPARRKKKRSSRDSEDSAGESSDSDAGARRKSRKGKDSRRDRKSKKDK	37600
GISHNQLSNDDVLLNPSDTGFSPTDNGDGDDGEPHSTLRMAWLLTRVLEHAPL	46600
NCVNLSFQLLFGELVVFLISLYMSVLYGLLYMFFVAQLPPEVRLIPMMCSCWF	59700
MADALAENTAKLQLDEETGEMVSKGELKKRMAKRAKKAAAAKAKAEVPATTSA	20400
PEAAPGEEVKEEAGEEQKPDRRDRRGRDRGGRGGRDRGRGRGGASRGGKRGDT	26700
GLLKIVVILPVTDVPLPPYRVTPMFLGGMRDLVTHLLRRTSTILTCDRLWYLW	28400
ASKRKRTEGESKKKEAKRERPKKKSRRDDDDDASGGDELEGKRSRKPKRASAS	18500
SSCAPIPMVDFDINESNMVMGNYFDDFASFMDNVPIPNSVFSPSYQPLFAFLP	114000
NPTDTILILATSLPTVSTFFINYLLLQGLIGSAIELTQAYRLLWNIVIVRWFA	54500

Sequence	transcriptional activation domain activity
KSKKTEAEAEEEEVTEEVKPEKKEKKEKKEKKEKKRKRDAEEDAAETKPAEKA	17600
MYELAFFFFFFLFRLFLSLFRGGCFWVQIFVFIPEYLVYSILFSFFFLLLFTF	47500
IALCEAVYIWLAKQLYQEFGWKIYKKIGADLIKRRMYRDYHICLMLLKLDLFF	64200
DKPKTKPAAAKAKPKSATTKAKPASKASAKPSSKAGAKKPASKKATAAAAAKK	12000
MSIVPVNSTYTLCILLMFVMLETTLYDPPLCGCMARLVTMFYGFFYGFFIYLI	61000
MEGRVGGDQKGGGFIFVYGSGVLDWGVFFRFIYISLSFFVWGLFLCVSFAFVL	41200
EAKEGEDGEKEKPKRGRKRKEPAADAEDEAADGDAADGEEPPAKKAKPASKAA	61800
LAESQRQNQQGGRGRGGRSLFDRTERGRGNRRGGHQGNGHHARQDEAANGGAE	17600
MPMLLIIFPLLYFLYCIHNLFHIISHYYEVFNTFYIVILHLSFLFYLHFILFH	69500
LSLYRLSFPASFSLFSSFPSCLVAFPFPLPLPLPLPPSCSPFLLLLLLLLFFS	51900
VQALASGDFDAGDGGRTTRPLFRKQKGASLFFVTSVCDTVCLAWTVVVHGHRQ	20600
VMHALWNRWIFFNRSLFLGNQHEGVRAFITEYWRMIRLAAGWDVLRWWLLILC	51800
SNTLSLALYTLIEHIGMQRLEYANNSLVMLLKLIHNIILSLKNLRLFFNFFVT	41900
MYTYTITFLSFISTIPLHSFLLFEQAYEYLCILLSLTVCLQTQLLLNICLLPF	73000
GLKLSPSSSGLLSTNESNAIEQFLDNLISQDMMSSNASMNSESHLHIRSPKKQ	68400
SNDGEDENGDGVSNEKSGRKKGKGRRKRGKDQAQVKGDQEPQDGEAGGEGGAE	21600
MRYGHLYTWIIILKYSLVLHQVFSLYLCIIFLAIIVFLIFVYWLMLEIFLVLF	80500
SASSPAATSPSACPTSSPRLRSPSSPSPSSQPPASPCTRSCPPPRPAARTARP	47500
SLSRIVGRGGAQINQIKEDTEVESLDVNQEGEGDSATVTLKGTKTAVAAAKKA	21900
KNNLWYLPLYLFYLSRVTPAATVVPVFLFFFIFFYFFIFIFYLFLFYLSFSIF	49900
